According to US20150337037A1 (MSM PROTEIN TECHNOLOGIES, published 2015):

T1: human chemokine receptor CCR6 (human, UniProt P51684 1-374)
T1 construct: whole, on cells; gene was synthesized (codon-optimized); a C-terminal tag may be present on the expressed protein; also called CCR6 human; human CCR6
T1 sequence (looked up): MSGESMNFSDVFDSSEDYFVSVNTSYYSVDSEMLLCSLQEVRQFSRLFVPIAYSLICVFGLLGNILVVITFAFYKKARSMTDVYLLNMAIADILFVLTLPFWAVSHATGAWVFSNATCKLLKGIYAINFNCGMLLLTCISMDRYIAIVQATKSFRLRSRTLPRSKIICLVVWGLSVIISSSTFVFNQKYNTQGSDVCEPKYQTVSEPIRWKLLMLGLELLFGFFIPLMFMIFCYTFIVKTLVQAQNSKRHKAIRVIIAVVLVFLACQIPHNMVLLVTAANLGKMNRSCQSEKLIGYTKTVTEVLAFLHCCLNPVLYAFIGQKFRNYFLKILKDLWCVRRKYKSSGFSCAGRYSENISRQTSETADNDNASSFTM

T2: mouse CCR6 (mouse, UniProt O54689 1-367)
T2 construct: whole, on cells; gene derived from a cDNA library; also called CCR6 mouse
T2 sequence (looked up): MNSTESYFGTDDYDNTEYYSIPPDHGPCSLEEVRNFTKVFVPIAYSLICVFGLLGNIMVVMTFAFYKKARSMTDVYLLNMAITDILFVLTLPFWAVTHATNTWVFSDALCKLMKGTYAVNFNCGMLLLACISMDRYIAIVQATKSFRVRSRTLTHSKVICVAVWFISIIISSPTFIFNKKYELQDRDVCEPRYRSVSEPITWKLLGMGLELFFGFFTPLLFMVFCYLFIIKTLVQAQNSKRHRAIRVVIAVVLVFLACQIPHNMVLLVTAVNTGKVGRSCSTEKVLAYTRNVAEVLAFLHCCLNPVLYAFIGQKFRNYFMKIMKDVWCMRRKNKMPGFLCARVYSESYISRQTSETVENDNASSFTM


What was measured:
human CXCR6 = target: T3, human CXCR6 (human, UniProt O00574 1-342); experiment: flow cytometry on GPCR-expressing cell panel
T3 construct: whole, on cells

[1] = target: T1, human chemokine receptor CCR6; experiment: flow cytometry on cells expressing the target, IgG1 titration, anti-human Fc-PE
cynomolgus monkey CCR6 [2] = target: T4, cynomolgus monkey CCR6 (cynomolgus monkey (Macaca Fascicularis)); experiment: as above
T4 construct: whole, on cells; gene derived from a total RNA library; also called CCR6 cyno; cyno CCR6

mouse CCR6 [3] = target: T2, mouse CCR6; experiment: as above
[4] = target: T1, human chemokine receptor CCR6; experiment: flow cytometry on cells expressing the target, IgG1 titration (repeat of Table 2)
cynomolgus monkey CCR6 [5] = target: T4, cynomolgus monkey CCR6; experiment: as above
mouse CCR6 [6] = target: T2, mouse CCR6; experiment: as above
mouse CCR6 [7] = target: T2, mouse CCR6; experiment: flow cytometry on cells expressing mouse CCR6
[8] = target: T1, human chemokine receptor CCR6; experiment: flow cytometry on cells expressing the target, antibody titration
cynomolgus monkey CCR6 [9] = target: T4, cynomolgus monkey CCR6; experiment: as above
mouse CCR6 [10] = target: T2, mouse CCR6; experiment: flow cytometry on CHO cells expressing mouse CCR6
[11] = target: T1, human chemokine receptor CCR6; experiment: cell-based or functional assay
[12] = target: T1, human chemokine receptor CCR6; experiment: cell-based or functional assay; remark: listed apart in the source
[13] = target: T1, human chemokine receptor CCR6; experiment: flow cytometry on R1610 cells expressing human CCR6, IgG1 titration, anti-human Fc-PE

T3 sequence (O00574 whole entry): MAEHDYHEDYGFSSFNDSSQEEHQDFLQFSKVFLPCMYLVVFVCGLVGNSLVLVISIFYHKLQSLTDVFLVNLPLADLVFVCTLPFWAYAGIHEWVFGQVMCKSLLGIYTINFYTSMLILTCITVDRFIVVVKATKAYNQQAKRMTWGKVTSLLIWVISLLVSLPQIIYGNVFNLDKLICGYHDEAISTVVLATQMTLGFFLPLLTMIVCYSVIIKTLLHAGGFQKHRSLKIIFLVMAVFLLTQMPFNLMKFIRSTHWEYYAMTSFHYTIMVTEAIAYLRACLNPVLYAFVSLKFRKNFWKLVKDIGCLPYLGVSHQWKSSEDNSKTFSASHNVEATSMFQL

Row | Binder | binding result (human CXCR6) | EC50 [1] [nM] | EC50 (cynomolgus monkey CCR6 [2]) [nM] | EC50 (mouse CCR6 [3]) [nM] | EC50 [4] [nM] | EC50 (cynomolgus monkey CCR6 [5]) [nM] | EC50 (mouse CCR6 [6]) [nM] | binding result (mouse CCR6 [7]) | EC50 [8] [nM] | EC50 (cynomolgus monkey CCR6 [9]) [nM] | binding result (mouse CCR6 [10]) | IC50, nM CCL20-Ca-Flux [11] [nM] | Ca-Flux IC50, nM CCR6/CCL20 [12] [nM] | EC50 [13] [nM]
1 | MSM-R621 IgG1 (antibody, V domains shown, Fully human IgG1) VH: EVQLLESGGGLVQPGGSLRLSCAASGFTFTTYYMHWVRQAPGKGLEWVSGIGPRGSWTGYADSVKGRFTISRDNSKNTLYLQMNSLRAEDTAVYYCARGRALVSNYSGLDYWGQGTLVTVSS VL: not shown | binds | 1.5 | 2.2 | 30 | 1.5 | 2.2 | 30 | – | – | – | – | – | – | –
2 | MSM-R612 IgG1 (antibody, V domains shown, Fully human IgG1) VH: EVQLLGSGGGLVQPGGSLRLSCAASGFTFTTYYMHWVRQAPGKGLEWVSLISPNAGNTYYADSVKGRFTISRDNSKNTLYLQMNSLRAEDTAVYYCARGRSRAGTSGMDYWGQGTLVTVSS VL: not shown | – | 1 | 1.6 | 1.5 | 1 | 1.6 | 1.5 | – | – | – | – | – | – | –
3 | MSM-R617 IgG1 (antibody, V domains shown, Fully human IgG1; also called MSMR617.46) VH: EVQLLESGGGLVQPGGSLRLSCAASGFTFSGYAMHWVRQAPGKGLEWVSSIGSRRGFTSYADSVKGRFTISRDNSKNTLYLQMNSLRAEDTAVYYCARSYAYQYRGLDYWGQGTLVTVSS VL: EIVLTQSPGTLSLSPGERATLSCRASQSVSSSYLAWYQQKPGQAPRLLIYGASSRATGIPDRFSGSGSGTDFTLTISRLEPEDFAVYYCQQRSSVTFGQGTKVEIKR | – | 1.5 | 1.9 | – | 1.5 | 1.9 | – | – | – | – | – | – | – | –
4 | MSM-R633 (antibody, V domains shown) VH: EVQLLESGGGLVQPGGSLRLSCAASGFTFTSSYMAWVRQAPGKGLEWVSSIAPSSGSTYYADSVKGRFTISRDNSKNTLYLQMNSLRAEDTAVYYCARSRWEWYYHSSHGLDYWGQGTLVTVSS VL: EIVLTQSPGTLSLSPGERATLSCRASQSVSSSYLAWYQQKPGQAPRLLIYGASSRATDIPDRFSGSGSGTDFTLTISRLEPEDFAVYYCQQSYSDPITFGQGTKVEIK | – | – | – | – | – | – | – | no binding | 7 | 7.5 | – | – | – | –
5 | MSM-R619 IgG1 (antibody, V domains shown, Fully human IgG1; also called MSM R19) VH: EVQLLESGGGLVQPGGSLRLSCAASGFTFSNYYIHWVRQAPGKGLEWVSLISPGGSTTYYADSVKGRFTISRDNSKNTLYLQMNSLRAEDTAVYYCARGRTWWSTYYSGIDYWGQGTLVTVSS VL: not shown | – | 1.7 | 2 | – | 1.7 | 2 | – | – | – | – | no binding | – | – | –
6 | MSM-R606 IgG1 (antibody, Fully human IgG1) heavy: not shown light: EIVLTQSPGTLSLSPGERATLSCRASQSVSSSYLAWYQQKPGQAPRLLIYGASSRATGIPDRFSGSGSGTDFTLTISRLEPEDFAVYYCQQSSYSPITFGQGTKVEIKRTVAAPSVFIFPPSDEQLKSGTASVVCLLNNFYPREAKVQWKVDNALQSGNSQESVTEQDSKDSTYSLSSTLTLSKADYEKHKVYACEVTHQGLSSPVTKSFNRGEC | – | 1.4 | 1.7 | 0.7 | 1.4 | 1.7 | 0.7 | – | – | – | – | 8.3 | 8.3 | –
7 | MSM-R608 IgG1 (antibody, Fully human IgG1) heavy: not shown light: EIVLTQSPGTLSLSPGERATLSCRASQSVSSSYLAWYQQKPGQAPRLLIYGASSRATGIPDRFSGSGSGTDFTLTISRLEPEDFAVYYCQQSYYAPVTFGQGTKVEIKRTVAAPSVFIFPPSDEQLKSGTASVVCLLNNFYPREAKVQWKVDNALQSGNSQESVTEQDSKDSTYSLSSTLTLSKADYEKHKVYACEVTHQGLSSPVTKSFNRGEC | – | 2 | 2.5 | 1 | 2 | 2.5 | 1 | – | – | – | – | – | – | –
8 | MSM-R607 IgG1 (antibody, V domains shown, Fully human IgG1) VH: EVQLLESGGGLVQPGGSLRLSCAASGFTFSSYYMHWVRQAPGKGLEWVSLIAPANSDTYYADSVKGRFTISRDNSKNTLYLQMNSLRAEDTAVYYCARSSYTRHSSKRGMDYWGQGTLVTVSS VL: EIVLTQSPGTLSLSPGERATLSCRASQSVSSSYLAWYQQKPGQAPRLLIYGASSRATGIPDRFSGSGSGTDFTLTISRLEPEDFAVYYCQQAAYSPITFGQGTKVEIKR | binds | 1.2 | 2 | 1 | 1.2 | 2 | 1 | – | – | – | – | 13.5 | 13.5 | –
9 | MSM-R615 IgG1 (antibody, V domains shown, Fully human IgG1) VH: EVQLLESGGGLVQPGGSLRLSCAASGFTFSSYYMHWVRQTPGKGLEWVSIISPWSSSTYYADSVKGRFTISRDNSKNTLYLQMNSLRAEDTAVYYCARSSYSWGESYKRAIDYWGQGTLVTVSS VL: EIVLTQSPGTLSLSHGERATLSCRASQSVSSSYLAWYQQKPGQAPRLLIYGASSRATGIPDRFSGSGSGTDFTLTISRLEPEDFAVYYCQQSYYSPVTFGQGTKVEIKR | – | – | 2.5 | – | 1 | 2.5 | – | – | – | – | no binding | – | – | 1
10 | MSM-R625 (antibody, human IgG1, kappa, V domains shown) VH: not shown VL: EIVLTQSPGTLSLSPGERATLSCRASQSVSSSYLAWYQQKPGQAPRLLIYGASSRATGIPDRFSGSGSGTDFTLTISRLEPEDFAVYYCQQYSYAPITFGQGTKVEIKR | – | – | – | – | – | – | – | no binding | 1.6 | 2.6 | – | – | – | –
11 | MSM-R604 IgG1 (antibody, V domains shown, Fully human IgG1) VH: EVQLLESGGGLVQPGGSLRLSCAASGFTFTNYSMHWVRQAPGKGLEWVSLISPYSSSTYYADSMKGRFTISRDNSKNTLYLQMNSLRAEDTAVYYCARGRYYGAYSYPGFDYWGQGTLVTVSS VL: EIVLTQSPGTLSLSPGERATLSCRASQSVSSSYLAWYQQKPGQAPRLLIYGASSRATGIPDRFSGSGSGTDFTLTISRLEPEDFAVYYCQQSAKNPLTFGQGTKVEIKR | – | 2.9 | 1.5 | – | 2.9 | 1.5 | – | – | – | – | no binding | – | – | –
12 | MSM-R609 IgG1 (antibody, V domains shown, Fully human IgG1) VH: EVQLLESGGGLVQPGGSLRLSCAASGFTFTASYMSWVRQAPGKGLEWVSNISPKYGNTYYADSVKGRFTISRDNSKNTLYLQMNSLRAEDTAVYYCARSIRSAKYSYYGIDYWGQGTLVTVSS VL: EIVLTQSPGTLSLSPGERATLSCRASQSVSSSYLAWYQQKPGQAPRLLIYGASSRATGIPDRFSGSGSGTDFTLTISRLEPEDFAVYYCQQSASAPVTFGQGTKVEIKR | – | 1 | 1.6 | – | 1 | 1.6 | – | – | – | – | – | – | – | –
13 | MSM-R610 IgG1 (antibody, V domains shown, Fully human IgG1; also called MSM R610.46) VH: EVQLLESGGGLVQPGGSLRLSCAASGFTFTGSSMSWVRQAPGKGLEWVSLISSRGSYTYYADSVKGRFTISRDNSKNTLYLQMNSLRAEDTAVYYCARSYAYQYRGLDYWGQGTLVTVSS VL: EIVLTQSPGTLSLSPGERATLSCRASQSVSSSYLAWYQQKPGQAPRLLIYGASSRATGIPDRFSGSGSGTDFTLTISRLEPEDFAVYYCQQNRTSPITFGQGTKVEIKR | – | > 100 | > 100 | – | > 100 | > 100 | – | – | – | – | no binding | – | – | –
14 | MSM-R622 IgG1 (antibody, V domains shown, Fully human IgG1; also called MSM R622.46) VH: EVQLLESGGGLVQPGGSLRLSCAASGFTFSKNSMSWVRQAPGKGLEWVSLITSYSGYTYYADSVKGRFTISRDNSKNTLYLQMNSLRAEDTAVYYCARSYAYQYRGLDYWGQGTLVTVSS VL: not shown | – | 1.9 | – | – | 1.9 | – | – | – | – | – | – | – | – | –
